Results on one substance are retold here after PMC10881151.

Experiment [1] deals with Drp1-S579D (phosphomimetic mutant of human DRP1 isoform 3) (human). Kind of experiment: co-sedimentation.
Experiment [2] has as its target Drp1-S600D (phosphomimetic mutant of human DRP1 isoform 3) (human). Nature of the experiment: co-sedimentation.

Take “MFF-∆TM (truncated human MFF isoform 4) (from UniProt Q9GZY8-4 1-218) (domain or fragment)”: the percent less Drp1 and Mff in the pellets than for Drp1-WT in experiment [1] and in experiment [2] was 50% in each case.
